Data: US20220363757A1 (SYMPHOGEN A S, published 2022)

Columns and labels:
Test in all cases: SPR, Fab over captured mutant LAG-3-Fc;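 further: LAG-3 fusion proteins captured on an anti-human IgG Fc sensor chip and read on an IBIS MX96 biosensor, Fab association and dissociation each 15 min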
[1] = target: T1, human LAG-3 domain 1-2 Fc fusion, chimeric construct #6 (mutated region AA 48-55) (human, UniProt P18627 23-266)
T1 construct: not shown: human IgG1 Fc, AA P101-K330
T1 chain: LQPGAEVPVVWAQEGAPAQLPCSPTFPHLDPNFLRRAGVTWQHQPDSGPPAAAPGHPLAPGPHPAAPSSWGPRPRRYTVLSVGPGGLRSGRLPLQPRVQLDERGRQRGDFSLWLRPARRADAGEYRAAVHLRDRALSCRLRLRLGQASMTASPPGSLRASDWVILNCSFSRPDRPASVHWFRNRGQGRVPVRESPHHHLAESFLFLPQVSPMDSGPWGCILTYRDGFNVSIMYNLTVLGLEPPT

[2] = target: T2, human LAG-3 domain 1-2 Fc fusion, chimeric construct #25 (mutated region AA 154-158) (human, UniProt P18627 23-266)
T2 construct: not shown: human IgG1 Fc, AA P101-K330
T2 chain: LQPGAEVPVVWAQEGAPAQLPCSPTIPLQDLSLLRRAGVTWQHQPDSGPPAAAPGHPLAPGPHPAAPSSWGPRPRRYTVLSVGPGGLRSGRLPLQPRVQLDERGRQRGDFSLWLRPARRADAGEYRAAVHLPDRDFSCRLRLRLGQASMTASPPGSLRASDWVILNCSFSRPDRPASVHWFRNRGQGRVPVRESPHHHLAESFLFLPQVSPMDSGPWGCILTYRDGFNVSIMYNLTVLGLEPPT

[3] = target: T3, human LAG-3 domain 1-2 Fc fusion, chimeric construct #15 (mutated region AA 95-100) (human, UniProt P18627 23-266)
T3 construct: not shown: human IgG1 Fc, AA P101-K330
T3 chain: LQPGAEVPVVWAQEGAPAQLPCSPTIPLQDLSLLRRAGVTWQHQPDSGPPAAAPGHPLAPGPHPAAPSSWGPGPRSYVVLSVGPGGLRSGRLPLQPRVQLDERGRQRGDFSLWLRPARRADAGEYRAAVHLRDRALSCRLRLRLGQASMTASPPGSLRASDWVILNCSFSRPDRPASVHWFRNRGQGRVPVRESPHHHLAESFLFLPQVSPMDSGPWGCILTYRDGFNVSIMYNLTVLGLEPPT

[4] = target: T4, human LAG-3 domain 1-2 Fc fusion, chimeric construct #11 (mutated region AA 74-82) (human, UniProt P18627 23-266)
T4 construct: not shown: human IgG1 Fc, AA P101-K330
T4 chain: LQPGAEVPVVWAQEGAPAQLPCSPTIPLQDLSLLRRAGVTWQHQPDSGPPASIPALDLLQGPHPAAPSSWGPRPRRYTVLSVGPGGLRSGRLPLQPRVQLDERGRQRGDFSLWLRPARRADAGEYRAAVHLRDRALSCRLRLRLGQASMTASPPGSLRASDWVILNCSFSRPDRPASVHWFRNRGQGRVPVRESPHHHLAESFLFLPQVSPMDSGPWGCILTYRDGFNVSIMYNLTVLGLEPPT

[5] = target: T5, human LAG-3 domain 1-2 Fc fusion, chimeric construct #4 (mutated region AA 40-47) (human, UniProt P18627 23-266)
T5 construct: not shown: human IgG1 Fc, AA P101-K330
T5 chain: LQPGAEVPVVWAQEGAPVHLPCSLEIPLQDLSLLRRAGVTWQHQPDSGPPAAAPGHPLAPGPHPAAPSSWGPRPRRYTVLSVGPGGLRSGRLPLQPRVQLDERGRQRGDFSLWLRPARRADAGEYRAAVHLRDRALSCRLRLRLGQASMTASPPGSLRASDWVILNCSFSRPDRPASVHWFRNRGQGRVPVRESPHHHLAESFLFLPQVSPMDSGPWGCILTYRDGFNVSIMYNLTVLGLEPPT

[6] = target: T6, human LAG-3 domain 1-2 Fc fusion, chimeric construct #23 (mutated region AA 148-152) (human, UniProt P18627 23-266)
T6 construct: not shown: human IgG1 Fc, AA P101-K330
T6 chain: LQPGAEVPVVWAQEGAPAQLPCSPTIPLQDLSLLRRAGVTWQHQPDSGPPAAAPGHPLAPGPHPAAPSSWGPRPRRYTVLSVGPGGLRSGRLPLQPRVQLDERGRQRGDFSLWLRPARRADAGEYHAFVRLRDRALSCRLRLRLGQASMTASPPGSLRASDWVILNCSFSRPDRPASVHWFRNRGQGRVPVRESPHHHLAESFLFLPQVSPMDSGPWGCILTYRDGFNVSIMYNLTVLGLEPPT

[7] = target: T7, human LAG-3 domain 1-2 Fc fusion, chimeric construct #10 (mutated region AA 70-77) (human, UniProt P18627 23-266)
T7 construct: 'Q71Q' copied as printed; construct #9 prints P71Q for the same position
T7 chain: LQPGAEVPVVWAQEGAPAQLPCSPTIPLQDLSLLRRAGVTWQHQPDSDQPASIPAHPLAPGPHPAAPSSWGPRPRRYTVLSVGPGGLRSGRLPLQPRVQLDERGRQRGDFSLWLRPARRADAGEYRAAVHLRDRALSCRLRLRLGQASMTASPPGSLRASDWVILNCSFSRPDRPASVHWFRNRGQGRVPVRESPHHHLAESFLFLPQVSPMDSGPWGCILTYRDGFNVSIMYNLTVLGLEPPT
Experimental: The LAG-3 fusion proteins were immobilized onto a G-a-hu-IgG Fc SensEye® (Ssens BV, The Netherlands) for 15 minutes using a Continuous Flow Microspotter (CFM, Wasatch Microfluidics, Salt Lake City, US). After spotting, the SensEye® was positioned in an IBIS MX96 biosensor and captured proteins were evaluated for binding affinity. […] Fab association was performed for 15 minutes and antigen dissociation was performed for 15 minutes. The recorded binding responses were fitted to a simple Langmuir 1:1 binding model with Scrubber 2 software for calculation of the on-rate (kon or ka), off-rate (koff or kd) and affinity (KD) constants.

[8] = target: T8, human LAG-3 domain 1-2 Fc fusion, chimeric construct #27 (mutated region AA 161-166) (human, UniProt P18627 23-266)
T8 construct: not shown: human IgG1 Fc, AA P101-K330
T8 chain: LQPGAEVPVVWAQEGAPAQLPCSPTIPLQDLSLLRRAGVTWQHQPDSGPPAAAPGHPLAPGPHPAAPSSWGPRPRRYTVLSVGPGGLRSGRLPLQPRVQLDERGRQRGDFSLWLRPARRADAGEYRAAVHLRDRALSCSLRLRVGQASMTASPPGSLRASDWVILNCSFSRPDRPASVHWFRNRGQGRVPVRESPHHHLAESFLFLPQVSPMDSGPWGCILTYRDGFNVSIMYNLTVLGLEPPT

B1: Fab fragment of antibody 15011 (Fab, V domains shown, not shown: a dimerising Fc or GST)
VH: EVQLLESGGGLVQPGGSLRLSCAASGFDFRSYAMMWVRQAPGKGLEWVGGINGEVGGSNTYYAPAVKGRATISRDNSKNTLYLQMNSLRAEDTAVYYCVKGAGACGICNDDIDAWGQGTLVTVSS
VL: SYELTQDPAVSVALGQTVRITCSGAGSYAGSYYYGWHQQKPGQAPVTVIYDNDKRPSNIPDRFSGSSSGNTASLTITGAQAEDEADYYCGSTNDNDDGGLFGSGTKVTVLG
notes: monomeric Fab made by GingisKHAN digestion of the IgG1
KD mutant/KD wild type [1]: 0.5 fold
KD mutant/KD wild type [2]: 1.9 fold
KD mutant/KD wild type [3]: 1.9 fold
KD mutant/KD wild type [4]: 0.6 fold
KD mutant/KD wild type [5]: 0.5 fold
KD mutant/KD wild type [6]: 2 fold
KD mutant/KD wild type [7]: 1.8 fold
KD mutant/KD wild type [8]: 2.3 fold

B2: Fab fragment of antibody 15572 (Fab, V domains shown, not shown: a dimerising Fc or GST)
VH: QLQLQESGPGLVKPSETLSLTCTVSGDSISSSSYYWGWIRQPPGKGLEWIGSIFYSGNTYYNPSLKSRVTISVDTSKNQFSLKLSSVTAADTAVYYCAREDDFLTDYYGAFDIWGQGTMVTVSS
VL: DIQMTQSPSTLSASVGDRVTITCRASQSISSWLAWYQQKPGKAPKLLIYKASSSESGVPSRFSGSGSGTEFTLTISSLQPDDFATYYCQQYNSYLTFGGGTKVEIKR
notes: as for B1
binding result [1]: no binding (tested: 300 nM)
binding result [2]: no binding (tested: 300 nM)
KD mutant/KD wild type [3]: 3.1 fold
KD mutant/KD wild type [4]: 0.5 fold
binding result [5]: no binding (tested: 300 nM)
binding result [6]: no binding (tested: 300 nM)
KD mutant/KD wild type [7]: 0.7 fold
KD mutant/KD wild type [8]: 1.7 fold

B3: Fab fragment of antibody 15532 (Fab, V domains shown, not shown: a dimerising Fc or GST)
VH: QVQLQQWGAGLLRPSETLSLTCAVYGESFSGYYWNWIRQPPGKGLEWIGEINHSGSTNYNPSLKSRVTISVDTSKTQFSLKLSSVTAADTAVYYCARGWDLLDWNDYWNEYWGQGTLVTVSS
VL: EIVLTQSPATLSLSPGERATLSCRASQSVSSYLAWYQQKPGQAPRLLIYDASNRATGIPARFSGSGSGTDFTLTISSLEPEDFAVYYCQQRSNWPLTFGGGTKVEIKR
notes: as for B1
KD mutant/KD wild type [1]: 3.4 fold
KD mutant/KD wild type [2]: 1.1 fold
KD mutant/KD wild type [3]: 6.5 fold
KD mutant/KD wild type [4]: 1.5 fold
KD mutant/KD wild type [5]: 3.9 fold
KD mutant/KD wild type [6]: 2.5 fold
KD mutant/KD wild type [7]: 1.1 fold
KD mutant/KD wild type [8]: 0.8 fold

B4: Fab fragment of antibody 15431 (Fab, V domains shown, not shown: a dimerising Fc or GST)
VH: QVQLQQSGPGLVKPSQTLSLTCAISGDSVSSNSAAWNWIRQSPSRGLEWLGRTYYRSKWYNDYAVSVKSRITINPDTSKNQFSLQLNSVTPEDTAVYYCARDDDWNDFDYWGQGTLVTVSS
VL: EIVLTQSPATLSLSPGERATLSCRASQSVSSYLAWYQQKPGQAPRLLIYDASNRATGIPARFSGSGSGTDFTLTISSLEPEDFAVYYCQQRSNWPLTFGGGTKVEIKR
notes: as for B1
binding result [1]: no binding (tested: 300 nM)
KD mutant/KD wild type [2]: 0.8 fold
binding result [3]: no binding (tested: 300 nM)
KD mutant/KD wild type [4]: 0.4 fold
binding result [5]: no binding (tested: 300 nM)
KD mutant/KD wild type [6]: 3.5 fold
KD mutant/KD wild type [7]: 1.1 fold
KD mutant/KD wild type [8]: 1.3 fold
